This is an account of results in patent US20180155451A1 (published 2018).

Assay [1] addresses T1, FcgRIa (human, UniProt P12314 16-292).
T1 construct: extracellular domain; Soluble extracellular domain with C-terminal His tag, expressed in FreeStyle293 cells; also called FcγRIa; FcγRI; not shown: His tag attached to the C terminus
As to the kind of experiment: SPR (Biacore), antibody captured, FcgR as analyte. The protocol: (§1) Analysis of interaction between obj ective antibody and the FcγR was carried out using Biacore T100 (GE Healthcare), Biacore T200, Biacore A100, and Biacore 4000. HBS-EP+ (GE Healthcare) was used as the running buffer, and the measurement temperature was set to 25° C. Chips produced by immobilizing the antigen peptide by the amine coupling method to a Series S sensor Chip CM5 (GE Healthcare), chips produced by allowing preliminarily biotinylated antigen peptides to interact with and immobilize onto a Series S Sensor Chip SA (certified) (GE Healthcare), chips produced by immobilizing Protein L (ACTIGEN, BioVision) to Series S Sencor Chip CM5 (GE Healthcare), or chips produced by immobilizing Protein A/G (Thermo Scientific) to Series S Sencor Chip CM5 (GE Healthcare) were used. Antibodies of interest were captured onto these chips, and allowed to interact to each FcγR diluted with running buffer. To regenerate and repeatedly use the chip, the antibodies captured onto the chip were washed off by reacting 10 mM glycine-HCl, pH 1.5.
(In general: SPR reads the build-up and loss of mass on a sensor chip optically.)

For assay [2], the target named is T2, FcgRIIaR (human, UniProt P12318 34-217).
T2 construct: extracellular domain; Soluble extracellular domain with C-terminal His tag; also called FcγRIIa R; FcγRIIa type R; not shown: His tag attached to the C terminus
T2 sequence (looked up): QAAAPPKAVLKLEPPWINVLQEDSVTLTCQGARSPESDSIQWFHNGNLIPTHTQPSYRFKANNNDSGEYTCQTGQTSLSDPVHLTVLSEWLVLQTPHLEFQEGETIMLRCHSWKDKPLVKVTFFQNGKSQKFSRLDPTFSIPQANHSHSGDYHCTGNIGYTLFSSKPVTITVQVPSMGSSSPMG
As to the kind of experiment: SPR (Biacore), antibody captured, FcgR as analyte. The procedure: as §1

Assay [3] concerns the target T3, FcgRIIaH (human, UniProt P12318 34-217).
T3 construct: extracellular domain; Soluble extracellular domain with C-terminal His tag; also called FcγRIIa H; FcγRIIa type H; not shown: His tag attached to the C terminus
T3 sequence (looked up): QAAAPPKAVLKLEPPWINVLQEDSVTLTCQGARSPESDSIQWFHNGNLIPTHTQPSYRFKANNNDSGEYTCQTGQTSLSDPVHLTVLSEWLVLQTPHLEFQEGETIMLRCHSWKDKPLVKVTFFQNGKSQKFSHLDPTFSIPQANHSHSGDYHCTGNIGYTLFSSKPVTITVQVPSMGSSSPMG
As to the kind of experiment: SPR (Biacore), antibody captured, FcgR as analyte. The procedure: as §1

Assay [4] deals with T4, FcgRIIb (human, UniProt P31994 43-217).
T4 construct: extracellular domain; Soluble extracellular domain with C-terminal His tag; also called FcγRIIb; CD32B; not shown: His tag attached to the C terminus
T4 sequence (looked up): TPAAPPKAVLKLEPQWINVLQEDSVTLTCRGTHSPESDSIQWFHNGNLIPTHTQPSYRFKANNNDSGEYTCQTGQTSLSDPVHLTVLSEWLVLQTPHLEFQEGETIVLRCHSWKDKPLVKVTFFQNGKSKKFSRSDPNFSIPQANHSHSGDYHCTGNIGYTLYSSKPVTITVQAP
As to the kind of experiment: SPR (Biacore), antibody captured, FcgR as analyte. The protocol:
as §1

In assay [5] the target is T5, FcgRIIIaF (human, UniProt P08637 17-208).
T5 construct: extracellular domain; Soluble extracellular domain with C-terminal His tag; polymorphic site made after J. Clin. Invest; also called FcγRIIIa F; not shown: His tag attached to the C terminus
T5 sequence (P08637 17-208): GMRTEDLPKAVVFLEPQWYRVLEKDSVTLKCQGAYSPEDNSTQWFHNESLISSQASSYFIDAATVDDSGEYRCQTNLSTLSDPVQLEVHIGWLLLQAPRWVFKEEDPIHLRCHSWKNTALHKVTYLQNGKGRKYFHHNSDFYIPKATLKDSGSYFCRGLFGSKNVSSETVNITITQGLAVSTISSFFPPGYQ
As to the kind of experiment: SPR (Biacore), antibody captured, FcgR as analyte. The procedure: as §1

The target in assay [6] is T6, FcgRIIIaV (human, UniProt P08637 17-208).
T6 construct: extracellular domain; Soluble extracellular domain with C-terminal His tag; polymorphic site made after J. Clin. Invest; also called FcγRIIIa V; not shown: His tag attached to the C terminus
T6 sequence (P08637 17-208 F176V limits assumed): as the sequence (P08637 17-208) above, with F160V counted along it
The assay is described as follows: SPR (Biacore), antibody captured, FcgR as analyte. The protocol: as §1

For assay [7], the target named is T1, FcgRIa. The assay is described as follows: SPR (Biacore); KD of H240-Kn120/H240-Hl068/L73-k0 divided by KD of this antibody. The protocol: (§2) Analysis of interaction between obj ective antibody and the FcγR was carried out using Biacore T100 (GE Healthcare), Biacore T200, Biacore A100, and Biacore 4000.
In assay [8] the target is T2, FcgRIIaR. Described as above. The procedure:
as §2

Assay [9] has as its target T3, FcgRIIaH. The description is as above. The protocol: as §2
Assay [10] deals with T4, FcgRIIb. The assay is described as above. The procedure:
as §2

Assay [11] has as its target T5, FcgRIIIaF. The assay is described as above. The protocol:
as §2

Assay [12] addresses T6, FcgRIIIaV. Described as above. The procedure: as §2

T1 sequence (P12314 16-292): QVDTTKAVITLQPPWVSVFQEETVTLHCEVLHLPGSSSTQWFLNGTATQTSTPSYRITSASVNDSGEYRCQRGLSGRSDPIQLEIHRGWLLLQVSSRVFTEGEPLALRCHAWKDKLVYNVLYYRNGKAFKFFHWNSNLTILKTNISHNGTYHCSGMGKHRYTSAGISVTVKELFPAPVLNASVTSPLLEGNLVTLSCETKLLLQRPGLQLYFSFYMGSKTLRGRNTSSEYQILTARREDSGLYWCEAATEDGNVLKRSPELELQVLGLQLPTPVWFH

B1: H240-Kn120/H240-Hl170/L73-k0 (antibody, human IgG1, kappa)
heavy 1: QDQLVQSGAEVKKPGASVKVSCKASGFNIKDTYIQWVRQAPGQGLEWMGRIDPLRKQTKYREKFEGRVTITADTSTNTAYMELSSLRSEDTAVYYCVRSGREFDYWGQGTLVTVSSASTKGPSVFPLAPSSKSTSGGTAALGCLVKDYFPEPVTVSWNSGALTSGVHTFPAVLQSSGLYSLSSVVTVPSSSLGTQTYICNVNHKPSNTKVDKKVEPKSCDKTHTCPPCPAPEYYWGPMVFLFPPKPKDTLMISRTPEVTCVVVDVSDEDPEVKFNWYVDGVEVHNAKTKPREEQYNATYRVVSVLTVLHQDWLNGKEYKCKVSNKDLPAPIEKTISKAKGQPREPQVCTLPPSRDELTKNQVSLWCLVKGFYPSDIAVEWESNGQPENNYKTTPPVLDSDGSFFLYSKLTVDKSRWQQGNVFSCSVMHEALHNHYTQKSLSLSP
heavy 2: QDQLVQSGAEVKKPGASVKVSCKASGFNIKDTYIQWVRQAPGQGLEWMGRIDPLRKQTKYREKFEGRVTITADTSTNTAYMELSSLRSEDTAVYYCVRSGREFDYWGQGTLVTVSSASTKGPSVFPLAPSSKSTSGGTAALGCLVKDYFPEPVTVSWNSGALTSGVHTFPAVLQSSGLYSLSSVVTVPSSSLGTQTYICNVNHKPSNTKVDKKVEPKSCDKTHTCPPCPAPELLGGPSVFLFPPKPKDTLMISRTPEVTCVVVDVSHEEPEVKFNWYVDGVEVHNAKTKPREEQYNSTYRVVSVLTVLHQDWLNGKEYKCKVSNDAAPKPIEETISKAKGQPREPQVYTLPPSRCELTKNQVSLSCAVKGFYPSDIAVEWESNGQPENNYKTTPPVLDSDGSFFLVSKLTVDKSRWQQGNVFSCSVMHEALHNHYTQKSLSLSP
light: DIQMTQSPSSLSASVGDRVTITCRASQDIHKYIAWYQQKPGQAPRLLIQYTSTLQPGVPSRFSGSGSGTDYTFTISSLQPEDIATYYCLQYEQLRTFGGGTKVEIKRTVAAPSVFIFPPSDEQLKSGTASVVCLLNNFYPREAKVQWKVDNALQSGNSQESVTEQDSKDSTYSLSSTLTLSKADYEKHKVYACEVTHQGLSSPVTKSFNRGEC
notes: Heterodimerized anti-epiregulin IgG1 antibody; L328A introduced into H240-Hl068; also called H240-Kn120/H240-HI170/L73-k0
For orientation: Kd means the free concentration of one partner at which half of the binding sites on the other are occupied at equilibrium, for simple one-to-one binding. In the case of B1, the equilibrium dissociation constant (Kd) in the assay with FcgRIa [1] amounted to 0.19 nM; with FcgRIIaR [2], 8.6 nM; with FcgRIIaH [3], 18 nM; with FcgRIIb [4], 67 nM; with FcgRIIIaF [5], 3.9 nM; in the assay with FcgRIIIaV [6], 0.93 nM. The “Relative KD” value turned out to be 0.8 with FcgRIa [7]; 2.3 in the assay with FcgRIIaR [8]; 2.3 with FcgRIIaH [9]; 2.2 in the assay with FcgRIIb [10]; 0.6 in the assay with FcgRIIIaF [11]; 0.4 in the assay with FcgRIIIaV [12].

B2: H240-Kn120/H240-Hl174/L73-k0 (antibody, human IgG1, kappa)
heavy 1: QDQLVQSGAEVKKPGASVKVSCKASGFNIKDTYIQWVRQAPGQGLEWMGRIDPLRKQTKYREKFEGRVTITADTSTNTAYMELSSLRSEDTAVYYCVRSGREFDYWGQGTLVTVSSASTKGPSVFPLAPSSKSTSGGTAALGCLVKDYFPEPVTVSWNSGALTSGVHTFPAVLQSSGLYSLSSVVTVPSSSLGTQTYICNVNHKPSNTKVDKKVEPKSCDKTHTCPPCPAPEYYWGPMVFLFPPKPKDTLMISRTPEVTCVVVDVSDEDPEVKFNWYVDGVEVHNAKTKPREEQYNATYRVVSVLTVLHQDWLNGKEYKCKVSNKDLPAPIEKTISKAKGQPREPQVCTLPPSRDELTKNQVSLWCLVKGFYPSDIAVEWESNGQPENNYKTTPPVLDSDGSFFLYSKLTVDKSRWQQGNVFSCSVMHEALHNHYTQKSLSLSP
heavy 2: QDQLVQSGAEVKKPGASVKVSCKASGFNIKDTYIQWVRQAPGQGLEWMGRIDPLRKQTKYREKFEGRVTITADTSTNTAYMELSSLRSEDTAVYYCVRSGREFDYWGQGTLVTVSSASTKGPSVFPLAPSSKSTSGGTAALGCLVKDYFPEPVTVSWNSGALTSGVHTFPAVLQSSGLYSLSSVVTVPSSSLGTQTYICNVNHKPSNTKVDKKVEPKSCDKTHTCPPCPAPELLGGPSVFLFPPKPKDTLMISRTPEVTCVVVDVSHEEPEVKFNWYVDGVEVHNAKTKPREEQYNSTYRVVSVLTVLHQDWLNGKEYKCKVSNDALPKPEEETISKAKGQPREPQVYTLPPSRCELTKNQVSLSCAVKGFYPSDIAVEWESNGQPENNYKTTPPVLDSDGSFFLVSKLTVDKSRWQQGNVFSCSVMHEALHNHYTQKSLSLSP
light: DIQMTQSPSSLSASVGDRVTITCRASQDIHKYIAWYQQKPGQAPRLLIQYTSTLQPGVPSRFSGSGSGTDYTFTISSLQPEDIATYYCLQYEQLRTFGGGTKVEIKRTVAAPSVFIFPPSDEQLKSGTASVVCLLNNFYPREAKVQWKVDNALQSGNSQESVTEQDSKDSTYSLSSTLTLSKADYEKHKVYACEVTHQGLSSPVTKSFNRGEC
notes: Heterodimerized anti-epiregulin IgG1 antibody; I332E introduced into H240-Hl068; also called H240-Kn120/H240-HI174/L73-k0
As to B2, the Kd with FcgRIa [1] came to 0.14 nM; with FcgRIIaR [2] it was 30 nM; with FcgRIIaH [3] it was 55 nM; with FcgRIIb [4] it was 130 nM; in the assay with FcgRIIIaF [5], 0.51 nM; with FcgRIIIaV [6], 0.036 nM. Besides, the “Relative KD” value was found to be 1.1 in the assay with FcgRIa [7]; 0.7 with FcgRIIaR [8]; 0.7 with FcgRIIaH [9]; 1.2 with FcgRIIb [10]; 4.3 with FcgRIIIaF [11]; 10 in the assay with FcgRIIIaV [12].
